These are literature values, as cited in paper PMC4351059.

By pKa is commonly meant the negative logarithm of the acid dissociation constant.

The target of the data set is Cys215 (UniProt position 215, PVVVHCSAGIG). The conditions noted are these: not stated (reduced free enzyme implied).

With “Protein-tyrosine phosphatase 1B (PTP1B) (Homo sapiens (as described in this article; the cited source title says 'mammalian protein-tyrosine-phosphatase PTP1'))”, the pKa is 5.6.
